Laboratory results as given in patent US20080108546A1 (VLAAMS INTERUNIVERSITAIR INSTITUUT, published 2008).

Target: T1, E-epitope tagged human RIP2 (human, UniProt O43353 1-540)
T1 construct: ORF cloned in pCAGGS-E, expressed in 293T cells; also called E-RIP2
Test: co-immunoprecipitation from 293T lysates, anti-Flag IP, anti-E immunoblot
Experimental: FIG. 4: Interactions of INCA with other CARD-containing proteins. Co-immunoprecipitation assays were performed using lysates from 293T cells that have been transiently transfected with plasmids encoding various epitope-tagged proteins as indicated, including Flag-INCA, E-INCA, E-procaspase-1, E-COP, E-ICEBERG, E-RIP2 and E-procaspase-2 CARD. Immunoprecipitates were prepared using anti-Flag antibody adsorbed to protein G-sepharose and analyzed by SDS-PAGE/immunoblotting using anti-E epitope tag antibody and chemoluminescence-based detection. Aliquots of the same lysates were also analyzed directly by SDS-PAGE/immunoblotting as indicated. IP, immunoprecipitation; WB: Western blotting.
293T is a human embryonal kidney carcinoma cell line. 293T cells were routinely transfected using the calcium phosphate precipitation method (O'Mahoney and Adams, 1994). Cells were seeded the day before transfection at 2×10⁵ cells/6-well. Cells were transfected for 4 h, washed and incubated for another 24 h before lysates were prepared by harvesting the cells and lysing them in ice-cold NP-40 lysis buffer (10 mM HEPES pH 7.4, 142.5 mM KCl, 0.2% NP-40, 5 mM EGTA), supplemented with 1 mM DTT, 12.5 mM β-glycerophosphate, 1 mM Na₃VO₄, 1 mM PMSF, and 1× protease inhibitor mix (Roche, Basel, Switzerland). […] Alternatively, lysates were analyzed directly by immunoblotting after normalization for total protein content. […]

T1 sequence (O43353 whole entry): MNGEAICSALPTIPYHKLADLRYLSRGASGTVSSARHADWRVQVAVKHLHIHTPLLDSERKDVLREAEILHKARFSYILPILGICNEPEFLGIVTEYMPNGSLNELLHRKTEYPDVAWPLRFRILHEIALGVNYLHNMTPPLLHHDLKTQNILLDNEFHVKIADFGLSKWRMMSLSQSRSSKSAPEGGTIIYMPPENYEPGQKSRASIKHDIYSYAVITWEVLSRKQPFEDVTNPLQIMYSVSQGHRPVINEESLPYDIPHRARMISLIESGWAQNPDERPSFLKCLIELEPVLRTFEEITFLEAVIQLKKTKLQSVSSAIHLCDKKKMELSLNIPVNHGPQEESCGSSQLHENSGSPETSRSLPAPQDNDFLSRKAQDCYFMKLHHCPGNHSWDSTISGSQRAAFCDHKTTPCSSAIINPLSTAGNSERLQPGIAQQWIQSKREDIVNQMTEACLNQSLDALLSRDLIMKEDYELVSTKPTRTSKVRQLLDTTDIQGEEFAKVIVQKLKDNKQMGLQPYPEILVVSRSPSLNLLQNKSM

B1: Flag-tagged INCA (Inhibitory CARD) (other, not shown: small tags and cut ends)
chain: MADKVLKEKRKQFIRSVGEGTINGLLGELLETRVLSQEEIEIVKCENATVMDKARALLDSVIRKGAPACQICITYICEEDSHLAGTLGLSAGPTSGNHLTTQDSQIVLPS
notes: Expressed in 293T cells (pCAGGS-Flag) for co-immunoprecipitation; Flag-tagged INCA also expressed stably in THP-1 cells from a retroviral vector; also called Flag-INCA
Does B1 bind?
Result: no binding
